Values of other authors in PMC10287730.

Target: TLR4 (Homo sapiens) (UniProt O00206)
Sequence (O00206 24-839): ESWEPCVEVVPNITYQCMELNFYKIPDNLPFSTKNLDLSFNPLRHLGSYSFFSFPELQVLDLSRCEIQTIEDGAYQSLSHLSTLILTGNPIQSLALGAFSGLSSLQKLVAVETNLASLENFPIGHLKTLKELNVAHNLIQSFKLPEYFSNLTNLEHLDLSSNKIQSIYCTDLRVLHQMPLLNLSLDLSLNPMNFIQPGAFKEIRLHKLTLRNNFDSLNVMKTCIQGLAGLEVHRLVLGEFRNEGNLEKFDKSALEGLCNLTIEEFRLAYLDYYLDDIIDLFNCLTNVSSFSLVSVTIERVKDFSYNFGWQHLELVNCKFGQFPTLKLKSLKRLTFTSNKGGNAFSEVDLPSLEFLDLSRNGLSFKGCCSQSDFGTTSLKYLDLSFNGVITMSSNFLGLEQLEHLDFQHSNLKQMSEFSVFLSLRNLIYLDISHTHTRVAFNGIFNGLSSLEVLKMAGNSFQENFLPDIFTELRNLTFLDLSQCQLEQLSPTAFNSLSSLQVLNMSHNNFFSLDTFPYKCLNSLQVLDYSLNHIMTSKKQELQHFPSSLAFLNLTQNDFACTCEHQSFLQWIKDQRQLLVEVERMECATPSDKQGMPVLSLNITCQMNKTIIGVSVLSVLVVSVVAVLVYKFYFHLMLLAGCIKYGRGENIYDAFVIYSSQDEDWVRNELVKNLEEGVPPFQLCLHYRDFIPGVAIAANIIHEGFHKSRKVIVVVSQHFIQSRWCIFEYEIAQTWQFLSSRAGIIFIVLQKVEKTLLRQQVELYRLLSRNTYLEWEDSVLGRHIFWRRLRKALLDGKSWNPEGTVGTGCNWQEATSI

Galectin-3, sequence (P17931 2-250): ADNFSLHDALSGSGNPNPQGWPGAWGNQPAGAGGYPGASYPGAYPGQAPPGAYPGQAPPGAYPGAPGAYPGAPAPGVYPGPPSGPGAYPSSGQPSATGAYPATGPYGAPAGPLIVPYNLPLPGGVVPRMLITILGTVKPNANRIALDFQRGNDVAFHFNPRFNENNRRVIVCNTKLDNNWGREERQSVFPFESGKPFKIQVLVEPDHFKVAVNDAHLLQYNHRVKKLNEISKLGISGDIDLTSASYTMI

In the case of Galectin-3 (from UniProt P17931), the Kd is given as 1000 nM.
